One block for each binder: values may come before it.
Columns and labels:
[1] = molecular target: T1, human PD-L2 expressed on CHO cells (CHO-hPD-L2 cells) (human, UniProt Q9BQ51 20-273); assay: flow cytometry on CHO-hPD-L2 cells
T1 construct: whole, on cells; also called CHO-KI-PD-L1/PD-L2
T1 sequence (looked up): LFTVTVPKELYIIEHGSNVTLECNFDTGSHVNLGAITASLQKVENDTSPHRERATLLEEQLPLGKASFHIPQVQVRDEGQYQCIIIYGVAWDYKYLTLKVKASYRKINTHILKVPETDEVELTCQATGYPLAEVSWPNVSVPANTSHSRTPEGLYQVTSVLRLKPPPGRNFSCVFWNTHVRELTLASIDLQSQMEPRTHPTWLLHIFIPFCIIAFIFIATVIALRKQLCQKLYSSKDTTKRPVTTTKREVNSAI

[2] = molecular target: T2, human PD-L1 expressed on CHO cells (CHO-hPD-L1 cells) (human, UniProt Q9NZQ7 19-290); assay: flow cytometry on CHO-hPD-L1 cells
T2 construct: whole, on cells; also called CHO-KI-PD-L1/PD-L2
T2 sequence (Q9NZQ7 19-290): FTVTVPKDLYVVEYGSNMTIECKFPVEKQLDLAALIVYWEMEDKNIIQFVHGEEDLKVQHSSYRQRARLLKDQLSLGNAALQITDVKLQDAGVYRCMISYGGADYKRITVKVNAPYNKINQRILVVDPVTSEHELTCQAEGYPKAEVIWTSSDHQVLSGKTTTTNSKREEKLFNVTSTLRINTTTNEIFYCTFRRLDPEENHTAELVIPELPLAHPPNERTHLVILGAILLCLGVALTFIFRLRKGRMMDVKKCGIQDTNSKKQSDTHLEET

[3] = molecular target: T3, anti-PD-1/TIGIT/human serum albumin trispecific antibody Bi-70-71; assay: flow cytometry on CHO-hTIGIT cells
[4] = molecular target: T4, anti-PD-1/TIGIT/human serum albumin trispecific antibody Bi-72-73; assay: flow cytometry on CHO-hTIGIT cells
[5] = molecular target: T3, anti-PD-1/TIGIT/human serum albumin …; assay: BLI (Octet), antibody held on PD-1 sensor, human TIGIT 100 nM in solution
[6] = molecular target: T4, anti-PD-1/TIGIT/human serum albumin …; assay: as above

binding result [1]: binds | binding result [2]: binds
B1: anti-PD-L1/PD-L2 bispecific antibody Fc fusion protein Bi-203-204 (bispecific antibody, human IgG1, kappa, L234A L235A, V domains shown)
V domain 1: QVQLVESGGGLVKPGGSLRLSCAASGHTFIIYAIGWFRQAPGKGLEFVATINWSGSMTNYADSVKGRFTISRDNAKNTVYLQMNSLKPDDTAVYYCAAYVGATISTAHSRYDYWGQGTLVTVSS
V domain 2: EVQLVESGGGLVQPGGSLRLSCAASGRTFSSMTIGWFRQAPGKGLEFVSGIGWTSGLTVYADSVKGRFTISRDNAKNSMYLQMNSLRAEDTAVYYCAADSMNRGQFDYWGQGTLVTVSS

binding result [3]: binds | binding result [4]: binds
B2: human TIGIT expressed on CHO cells (CHO-hTIGIT cells) (receptor, UniProt Q495A1 22-244, looked up)
chain: MMTGTIETTGNISAEKGGSIILQCHLSSTTAQVTQVNWEQQDQLLAICNADLGWHISPSFKDRVAPGPGLGLTLQSLTVNDTGEYFCIYHTYPDGTYTGRIFLEVLESSVAEHGARFQIPLLGAMAATLVVICTAVIVVVALTRKKKALRIHSVEGDLRRKSAGQEEWSPSAPSPPGSCVQAEAAPAGLCGEQRGEDCAELHDYFNVLSYRSLGNCSFFTETG
notes: whole, on cells; also called CHO-hTIGIIT

binding result [5]: binds | binding result [6]: binds
B3: human TIGIT (ACROBiosystems) (receptor, UniProt Q495A1 22-141, looked up)
chain: MMTGTIETTGNISAEKGGSIILQCHLSSTTAQVTQVNWEQQDQLLAICNADLGWHISPSFKDRVAPGPGLGLTLQSLTVNDTGEYFCIYHTYPDGTYTGRIFLEVLESSVAEHGARFQIP
notes: Bought protein

Source: US20230167200A1 (BIOTHEUS, published 2023)
